Changes are numbered by the printed parent chain.

The target in assay [1] is T1, recombinant human IL-1 beta (human, UniProt P01584 117-269, biotinylated in the ELISA of Example 2 (R&D systems, cat. no. NFLB0), sites not stated; unlabelled elsewhere). Briefly: cell-based or functional assay.
Assay [2] concerns the target T1, recombinant human IL-1 beta. As to the kind of experiment: ELISA, rhIL-1 beta coated, scFv 10 to 3'000 ng/ml, Protein L-HRP. The method, then:
A scFv of irrelevant specificity was used as a control. rhIL-1 beta (Peprotech, cat. no. 200-01B) was coated to NUNC 96-well Maxisorp immunoplates. After blocking scFvs were titrated from 10 to 3′000 ng/ml. Bound scFvs were detected by Protein L-HRP (Sigma-Aldrich, cat. no. P3226), and the ELISA was developed using BM Blue POD substrate (Roche Applied Science, cat. no. 11484281001). For quantification purposes, the absorption was measured at 450 nm using VersaMax microplate reader (Molecular Devices).
For orientation: In an ELISA, binding on a coated surface is turned into a signal by an enzyme label.

The target in assay [3] is T2, mouse IL-1 beta (mouse, UniProt P10749 118-269).
T2 construct: Bought recombinant protein
T2 sequence (looked up): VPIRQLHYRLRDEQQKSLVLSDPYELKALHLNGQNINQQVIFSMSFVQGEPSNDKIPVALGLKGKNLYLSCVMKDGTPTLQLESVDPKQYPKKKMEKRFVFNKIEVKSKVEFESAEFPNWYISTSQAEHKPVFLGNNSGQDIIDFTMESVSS
Briefly: ELISA, IL-1 beta coated at 2 mcg/ml, DLX2295 at 0.1, 0.3 and 1.0 mcg/ml, Protein L-HRP. The method, then: (§1) Binding to the recombinantly expressed IL-1 beta proteins of the following species was investigated: cynomolgus (Sino Biological Inc., USA, cat. no. 90010-CNAE), rhesus macaque (R&D Systems, USA, cat. no. 1318-RL/CF) and mouse IL-1 beta (BioLegend, cat. no. 575102). […] Briefly, proteins were coated at a concentration of 2 mcg/ml over night at 4° C. on Maxisorp 96-well microplates in PBS pH 7.2. […] The ELISAs were developed with BM Blue POD substrate (Roche Applied Science) and the absorbance was measured at 450 nm.

The target in assay [4] is T3, rhesus macaque IL-1 beta (rhesus macaque, UniProt P48090 117-269).
T3 construct: Bought recombinant protein
T3 sequence (looked up): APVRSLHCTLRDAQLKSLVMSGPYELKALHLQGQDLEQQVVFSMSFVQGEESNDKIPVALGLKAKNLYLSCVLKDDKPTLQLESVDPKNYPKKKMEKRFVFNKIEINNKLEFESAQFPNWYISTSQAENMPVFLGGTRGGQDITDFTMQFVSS
The description is as above. The method, then:
as §1

Assay [5] deals with T4, cynomolgus IL-1 beta (cynomolgus, UniProt P79182 117-268).
T4 construct: Bought recombinant protein; also called cymonolgus IL-1 beta
T4 sequence (looked up): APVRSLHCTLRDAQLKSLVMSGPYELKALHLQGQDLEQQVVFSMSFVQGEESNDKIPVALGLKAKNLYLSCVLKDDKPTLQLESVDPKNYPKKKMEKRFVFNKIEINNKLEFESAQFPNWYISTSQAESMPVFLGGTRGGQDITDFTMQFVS
Described as above. The method, then:
as §1

B1: DLX2260 (scFv)
scFv: EIVMTQSPSTLSASVGDRVIITCRASQDISNYLSWYQQKPGKAPKLLIYYTSKLHSGVPSRFSGSGSGAEFTLTISSLQPDDFATYYCLQGKMLPWTFGQGTKLTVLGGGGGSGGGGSGGGGSGGGGSEVQLVESGGGLVQPGGSLRLSCTASGFSLSTSGMGVGWVRQAPGKGLEWVGHIWWDGDESYNPSLKSRFTISRDTSKNTVYLQMNSLRAEDTAVYYCARNRYDPPWFVDWGQGTLVTVSS
On to B1, for which, in assay [1], the “IC50 of IL-1 beta-induced IL-6 release from human dermal fibroblasts” value (from here on “IC50 of IL-1 beta-induced IL-6 release”) is roughly 100 pM.

B2: DLX2332 (scFv)
scFv: B1 scFv with D81E, Y87F, L139S, T151A, V222S, Y224F, L243T
notes: also called anti-IL-1 beta scFv DLX2332
Turning to B2, the binding result in assay [2] is reported as “binds”.

B3: DLX2295 (scFv)
scFv: DIQMTQSPSTLSASVGDRVTITCRASQDISNYLSWYQQKPGKAPKLLIYYTSKLHSGVPSRFSGSGSGAEFTLTISSLQPEDFATYFCLQGKMLPWTFGQGTKLEIKRGGGGSGGGGSGGGGSGGGGSEVQLVESGGGSVQPGGSLRLSCAFSGFSLSTSGMGVGWIRQAPGKGLEWVSHIWWDGDESYNPSLKGRFTISKDTSRNTVYLQMNSLRAEDTASYFCARNRYDPPWFVDWGQGTTVTVSS
notes: also called anti-IL-1 beta scFv DLX2295
With B3, the binding result in assay [3], in assay [4] and in assay [5] was “binds” throughout. In addition, in assay [1], the “IC50 of IL-1 beta-induced IL-6 release” value lay in the range of 2 to 5 pM.

B4: DLX2296 (scFv)
scFv: B3 scFv with S139L, S222V, T243L
For the molecule B4, the “IC50 of IL-1 beta-induced IL-6 release” value in assay [1] is roughly 8 pM.

Source of the values: US20180258165A1 (CELL MEDICA SWITZERLAND, published 2018).
